Experimental data reported in patent US20260265789A1, “METHOD FOR IMPROVING 2, 4 DIHYDROXYBUTYRIC ACID PRODUCTION AND YIELD” (ADISSEO FRANCE S.A.S, priority 2023, published 2026).

Key:
[1] = biological target: T1, Escherichia coli pyruvate aldolase Eda (E.C. 4.1.2.14) (Escherichia coli, UniProt P0A955); test: Kinetic characterization of pyruvate aldolase on OHB (coupled LdhA/NADH assay, 340 nm); assay type: biochemical; conditions: Tris-HCl 50 mM pH 7.5, 5 mM MgCl2, 37° C., 0 to 13 mM OHB
T1 construct: coupled LdhA/NADH assay
T1 sequence (P0A955 1-213): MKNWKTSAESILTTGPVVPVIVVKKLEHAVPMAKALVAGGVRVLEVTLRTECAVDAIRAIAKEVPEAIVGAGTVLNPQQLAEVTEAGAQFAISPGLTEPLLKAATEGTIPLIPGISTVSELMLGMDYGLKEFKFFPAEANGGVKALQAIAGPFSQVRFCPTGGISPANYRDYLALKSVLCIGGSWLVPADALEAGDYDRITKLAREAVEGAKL

rhmA = test: Transcriptomic analysis during DHB fermentation: aldolase gene expression; assay type: cell-based, Escherichia coli; conditions: in presence of significant amount of DHB
garL = test: as above; assay type: cell-based, Escherichia coli; conditions: in presence of significant amount of DHB
yagE = test: as above; assay type: cell-based, Escherichia coli; conditions: in presence of significant amount of DHB
YjhH = test: as above; assay type: cell-based, Escherichia coli; conditions: in presence of significant amount of DHB
yfaU = test: as above; assay type: cell-based, Escherichia coli; conditions: in presence of significant amount of DHB
[2] = substrate: O=C(O)C(=O)CCO; test: purified protein, by the assay type; assay type: biochemical, Escherichia coli; conditions: Tris-HCl 50 mM pH 7.5, 5 mM MgCl2, 37° C., 0 to 13 mM OHB
[3] = variant obtained by in vivo evolution (Bouzon et al., 2017); cited from earlier work
[4] = In vivo capacity to degrade OHB by deletion of genes encoding pyruvate aldolase; assay type: cell-based, Escherichia coli; conditions: E. coli, gene deletion strains incubated with DHB
From the text: We measured production of formate in strains that were deleted for one of these aldolase encoding gene.

Molecule: O=C(O)C(=O)CCO [OHB, 2-oxo-4-hydroxybutyrate]
- Km [1]: > 20000 µM

Molecule: O=C(O)C(O)CCO (racemic) [DHB, 2,4-dihydroxybutyric acid]
- Maximal Expression (rhmA): 1.14
- Minimal Expression (rhmA): 0.98
- Maximal Expression (garL): 1.32
- Minimal Expression (garL): 1.06
- Maximal Expression (yagE): 13.33
- Minimal Expression (yagE): 1.82
- Maximal Expression (YjhH): 3.33
- Minimal Expression (YjhH): 1.25
- Maximal Expression (yfaU): 1.09
- Minimal Expression (yfaU): 0.9

B1: Escherichia coli pyruvate aldolase YagE (E.C. 4.1.2.28) (Escherichia coli K-12) (protein)
chain: MPQSALFTGIIPPVSTIFTADGQLDKPGTAALIDDLIKAGVDGLFFLGSGGEFSQLGAEERKAIARFAIDHVDRRVPVLIGTGGTNARETIELSQHAQQAGADGIVVINPYYWKVSEANLIRYFEQVADSVTLPVMLYNFPALTGQDLTPALVKTLADSRSNIIGIKDTIDSVAHLRSMIHTVKGAHPHFTVLCGYDDHLFNTLLLGGDGAISASGNFAPQVSVNLLKAWRDGDVAKAAGYHQTLLQIPQMYQLDTPFVNVIKEAIVLCGRPVSTHVLPPASPLDEPRKAQLKTLLQQLKLC
notes: coupled LdhA/NADH assay
- Km ([2]; other: YagE): 350 µM
- Vmax ([2]; other: YagE): 0.63 µmol/min/mg
- kcat ([2]; other: YagE): 0.04 s⁻¹
- kcat/Km ([2]; other: YagE): 115 M⁻¹ s⁻¹

B2: Escherichia coli pyruvate aldolase DgoA (E.C. 4.1.2.21) (Escherichia coli K-12) (protein)
chain: MQWQTKLPLIAILRGITPDEALAHVGAVIDAGFDAVEIPLNSPQWEQSIPAIVDAYGDKALIGAGTVLKPEQVDALARMGCQLIVTPNIHSEVIRRAVGYGMTVCPGCATATEAFTALEAGAQALKIFPSSAFGPQYIKALKAVLPSDIAVFAVGGVTPENLAQWIDAGCAGAGLGSDLYRAGQSVERTAQQAAAFVKAYREAVQ
notes: coupled LdhA/NADH assay
- Km ([2]; other: DgoA): 2800 µM
- Vmax ([2]; other: DgoA): 0.04 µmol/min/mg
- kcat ([2]; other: DgoA): 0.012 s⁻¹
- kcat/Km ([2]; other: DgoA): 4.7 M⁻¹ s⁻¹

B3: AlaC^A142PY275D: variant of alanine-α-ketoglutarate transaminase from E coli Ec-AlaC, obtained by in vivo evolution (Bouzon et al., 2017) (protein, UniProt P77434 1-412, looked up, variant A142P Y275D)
Glutamate-pyruvate …: MADTRPERRFTRIDRLPPYVFNITAELKMAARRRGEDIIDFSMGNPDGATPPHIVEKLCTVAQRPDTHGYSTSRGIPRLRRAISRWYQDRYDVEIDPESEAIVTIGSKEGLAHLMLATLDHGDTVLVPNPSYPIHIYGAVIPGAQVRSVPLVEGVDFFNELERAIRESYPKPKMMILGFPSNPTAQCVELEFFEKVVALAKRYDVLVVHDLAYADIVYDGWKAPSIMQVPGARDVAVEFFTLSKSYNMAGWRIGFMVGNKTLVSALARIKSYHDDGTFTPLQVAAIAALEGDQQCVRDIAEQYKRRRDVLVKGLHEAGWMVEMPKASMYVWAKIPEPYAAMGSLEFAKKLLNEAKVCVSPGIGFGDYGDTHVRFALIENRDRIRQAIRGIKAMFRADGLLPASSKHIHENAE
- higher catalytic activity on homoserine [3]: 100 fold

B4: YagE: E. coli pyruvate aldolase, E.C. 4.1.2.28, natural substrate 2-keto-3-deoxy-D-arabinonate; His-tagged recombinant protein (protein, UniProt P75682 1-302, looked up)
Putative …: MPQSALFTGIIPPVSTIFTADGQLDKPGTAALIDDLIKAGVDGLFFLGSGGEFSQLGAEERKAIARFAIDHVDRRVPVLIGTGGTNARETIELSQHAQQAGADGIVVINPYYWKVSEANLIRYFEQVADSVTLPVMLYNFPALTGQDLTPALVKTLADSRSNIIGIKDTIDSVAHLRSMIHTVKGAHPHFTVLCGYDDHLFNTLLLGGDGAISASGNFAPQVSVNLLKAWRDGDVAKAAGYHQTLLQIPQMYQLDTPFVNVIKEAIVLCGRPVSTHVLPPASPLDEPRKAQLKTLLQQLKLC
modifications: His tag
notes: E. coli pyruvate aldolase, E.C; 4.1.2.28, natural substrate 2-keto-3-deoxy-D-arabinonate; His-tagged recombinant protein
- function on OHB in vivo [4]: most efficient to degrade OHB in vivo

B5: YjhH: E. coli pyruvate aldolase, E.C. 4.1.2.28, natural substrate 2-keto-3-deoxy-D-arabinonate; His-tagged recombinant protein (protein, UniProt P39359 1-301, looked up)
Probable …: MKKFSGIIPPVSSTFHRDGTLDKKAMREVADFLINKGVDGLFYLGTGGEFSQMNTAQRMALAEEAVTIVDGRVPVLIGVGSPSTDEAVKLAQHAQAYGADGIVAINPYYWKVAPRNLDDYYQQIARSVTLPVILYNFPDLTGQDLTPETVTRLALQNENIVGIKDTIDSVGHLRTMINTVKSVRPSFSVFCGYDDHLLNTMLLGGDGAITASANFAPELSVGIYRAWREGDLATAATLNKKLLQLPAIYALETPFVSLIKYSMQCVGLPVETYCLPPILEASEEAKDKVHVLLTAQGILPV
modifications: His tag
notes: as for B4
- function on OHB in vivo [4]: most efficient to degrade OHB in vivo

B6: YfaU: E. coli pyruvate aldolase, E.C. 4.1.2.53, natural substrate 2-keto-3-deoxy-L-rhamnonate (protein, UniProt P76469 1-267, looked up)
2-keto-3-deoxy-L-rhamnonate …: MNALLSNPFKERLRKGEVQIGLWLSSTTAYMAEIAATSGYDWLLIDGEHAPNTIQDLYHQLQAVAPYASQPVIRPVEGSKPLIKQVLDIGAQTLLIPMVDTAEQARQVVSATRYPPYGERGVGASVARAARWGRIENYMAQVNDSLCLLVQVESKTALDNLDEILDVEGIDGVFIGPADLSASLGYPDNAGHPEVQRIIETSIRRIRAAGKAAGFLAVAPDMAQQCLAWGANFVAVGVDTMLYSDALDQRLAMFKSGKNGPRIKGSY
- function on OHB in vivo [4]: do not have any function on OHB in vivo

B7: GarL: E. coli pyruvate aldolase, E.C. 4.1.2.20, natural substrate 5-dehydro-4-deoxy-D-glucarate (protein, UniProt P23522 1-256, looked up)
5-keto-4-deoxy-D-glucarate …: MNNDVFPNKFKAALAAKQVQIGCWSALSNPISTEVLGLAGFDWLVLDGEHAPNDISTFIPQLMALKGSASAPVVRVPTNEPVIIKRLLDIGFYNFLIPFVETKEEAELAVASTRYPPEGIRGVSVSHRANMFGTVADYFAQSNKNITILVQIESQQGVDNVDAIAATEGVDGIFVGPSDLAAALGHLGNASHPDVQKAIQHIFNRASAHGKPSGILAPVEADARRYLEWGATFVAVGSDLGVFRSATQKLADTFKK
- function on OHB in vivo [4]: do not have any function on OHB in vivo
